From patent publication US20240124572A1 (Bayer, published 2024)
Values belong to the molecule of their own block, whether it stands above or below them.

Legend:
[1] = biological target: human IL-11 (Invigate, e.g., lot #C121021-19) (human) (UniProt P20809); assay: Di-complex ELISA (hIL-11 coated, canine IL11RA-hFc)
[2] = biological target: murine IL-11 (Invigate, e.g., lot #C210819-09) (mouse) (UniProt P47873); assay: Di-complex ELISA (mIL-11 coated, canine IL11RA-hFc)
[3] = biological target: murine IL-11 (Invigate, e.g., lot #C210819-09) (mouse) (UniProt P47873); assay: cell-based or functional assay
[4] = biological target: human IL-11 (Invigate, e.g., lot #C121021-19) (human) (UniProt P20809); assay: cell-based or functional assay
[5] = biological target: murine IL-11 (Invigate, e.g., lot #C210819-09) (mouse) (UniProt P47873); assay: Tri-complex ELISA (mIL-11, mIL-11Ra-Fc, mgp130-Fc)
[6] = biological target: human IL-11 (Invigate, e.g., lot #C121021-19) (human) (UniProt P20809); assay: Tri-complex ELISA (hIL-11, mIL-11Ra-Fc, hgp130-Fc)
[7] = biological target: murine IL-11 (Invigate, e.g., lot #C210819-09) (mouse) (UniProt P47873); assay: SPR, antibody captured, single IL-11 concentration 200 nM
[8] = biological target: human IL-11 (Invigate, e.g., lot #C121021-19) (human) (UniProt P20809); assay: as above
murine IL-11 = biological target: T1, murine IL-11 (mouse, UniProt P47873 22-199); assay: SPR, antibody captured, IL-11 analyte
T1 construct: bought from Invigate; also called mIL-11; mIL11
T1 sequence: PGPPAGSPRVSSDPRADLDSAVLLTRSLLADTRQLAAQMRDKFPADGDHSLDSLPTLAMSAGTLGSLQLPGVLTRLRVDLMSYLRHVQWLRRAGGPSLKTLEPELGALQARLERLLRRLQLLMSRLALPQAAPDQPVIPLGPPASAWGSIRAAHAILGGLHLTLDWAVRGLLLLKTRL
Experimental: Antibodies were captured via anti-mouse Fc IgGs (“Mouse antibody capture kit, Order No. BR100383, Cytiva) covalently amine coupled to a Series S CMS sensor chip (Cytiva). The amine coupling was carried out according to the manufacturer's instructions using 1-ethyl-3-(3-dimethylaminopropyl) carbodiimide hydrochloride (EDC), N-hydroxysuccinimide ([…]) and ethanolamine HCl, pH 8.5 (“Amine Coupling Kit” BR-1000-50, Cytiva). Human IL-11 (Invigate, e.g., lot #C121021-19), and murine IL-11 (Invigate, e.g., lot #C210819-09) were used as analytes. […] Based on that experiment an IL-11 concentration range was chosen to optimally determine kinetics and affinity of anti-IL-11 antibodies in multicycle kinetics mode. The sensor surface was regenerated with glycine pH 1.7 after each antigen injection. Obtained sensorgrams were double referenced (subtraction of reference flow cell signal and buffer injection) and were fitted to a 1:1 Langmuir binding model to derive kinetic data using the Biacore T200 Evaluation software or the Biacore Insight software.
42 hits from the IL-11 and IL-2Ra screening analysis were selected, expressed by transient transfection of mammalian cells and purified as described in Example 15. Antibodies were then tested for human IL-11 and murine IL-11 binding by SPR as described in Example 16.

[9] = biological target: T2, murine IL-11 (Invigate, e.g., lot #C210819-09) (mouse, UniProt P47873 22-199); assay: Tri-complex ELISA (mIL-11, mIL-11Ra-Fc, mgp130-Fc)
T2 construct: Biotinylated and captured on streptavidin plates in the Di-complex ELISA; unmodified analyte in SPR; also called mIL11; mIL-11
T2 sequence: T1 sequence

[10] = biological target: cynomolgus IL-11 (cynomolgus) (UniProt P20808); assay: cell-based or functional assay
human IL-11 (human) [11] = biological target: human IL-11 (human) (UniProt P20809); assay: cell-based or functional assay
human IL-11 (human) [12] = biological target: human IL-11 (human) (UniProt P20809); assay: Di-complex ELISA, competitor canine IL11RA-hFc, IL-11 immobilised

Efficacy (%) [1]: 10.3%
Efficacy (%) [2]: 11.7%
Efficacy (%)*, RGA [3]: 0%
Efficacy (%)*, RGA [4]: 21.3%
Efficacy (%) [5]: 0%
Efficacy (%) [6]: 1.1%
Molecule: GTX34009 (Genetex, clone 6D9A1) (antibody)

Efficacy (%) [1]: 74.9%
IC50 [1]: 1.9 nM
Kd [7]: 2 nM
Kd [8]: 3.3 nM
Efficacy (%) [2]: 89.9%
IC50 [2]: 4.7 nM
Efficacy (%)*, RGA [3]: 75.5%
Efficacy (%)*, RGA [4]: 5.1%
Efficacy (%) [5]: 106%
IC50 [5]: 17 nM
Efficacy (%) [6]: 36.9%
IC50 [6]: 14 nM
Molecule: GTX52814 (Genetex, clone 9T27) (antibody)

Efficacy (%) [1]: 71.5%
IC50 [1]: 5.3 nM
Kd [7]: 2.2 nM
Kd [8]: 3.9 nM
Efficacy (%) [2]: 91.2%
IC50 [2]: 3.5 nM
Efficacy (%)*, RGA [3]: 88%
IC50 [M], RGA [3]: 3.9e-09 M
Efficacy (%)*, RGA [4]: 42.6%
Efficacy (%) [5]: 98.4%
IC50 [5]: 3.8 nM
Efficacy (%) [6]: 65.6%
IC50 [6]: 20 nM
Molecule: LS-C104441 (LS-bio) (antibody)

Efficacy (%) [1]: 90.1%
IC50 [1]: 10 nM
Kd [7]: 6.2 nM
Kd [8]: 6.3 nM
Efficacy (%) [2]: 96.2%
IC50 [2]: 6.5 nM
Efficacy (%)*, RGA [3]: 88.3%
IC50 [M], RGA [3]: 5.6e-09 M
Efficacy (%)*, RGA [4]: 52.7%
IC50 [M], RGA [4]: 5e-08 M
Efficacy (%) [5]: 90.3%
IC50 [5]: 6.6 nM
Efficacy (%) [6]: 78.5%
IC50 [6]: 10 nM
Molecule: LS-C193526 (LS-bio, clone KT8) (antibody)

Efficacy (%) [1]: 51.1%
IC50 [1]: 60 nM
Kd [7]: 2 nM
Kd [8]: 3.6 nM
Efficacy (%) [2]: 70.5%
IC50 [2]: 29 nM
Efficacy (%)*, RGA [3]: 47.6%
Efficacy (%)*, RGA [4]: 19.9%
Efficacy (%) [5]: 62.3%
Efficacy (%) [6]: 34.1%
IC50 [6]: 19 nM
Molecule: MA5-23711 (Thermo Fisher Scientific, clone 22616) (antibody)

Efficacy (%) [1]: 0%
Efficacy (%) [2]: 0%
Efficacy (%)*, RGA [3]: 15.6%
Efficacy (%)*, RGA [4]: 23.9%
Efficacy (%) [5]: 1.5%
Efficacy (%) [6]: 0%
Molecule: MA5-30695 (Thermo Fisher Scientific, clone 9) (antibody)

Efficacy (%) [1]: 8.1%
Efficacy (%) [2]: 3.1%
Efficacy (%)*, RGA [3]: 17.2%
Efficacy (%)*, RGA [4]: 4.9%
Efficacy (%) [5]: 4.3%
Efficacy (%) [6]: 4.7%
Molecule: MA5-30696 (Thermo Fisher Scientific, clone 12) (antibody)

Efficacy (%), Stat3 reporter gene assay [3]: 69.1%
IC50 [M], Stat3 reporter gene assay [3]: 1.4e-07 M
Efficacy (%), Stat3 reporter gene assay [4]: 27.1%
IC50 [M], Stat3 reporter gene assay [4]: 2.4e-10 M
Efficacy (%) [5]: 81.1%
IC50 [5]: 8 nM
Efficacy (%) [6]: 81.1%
IC50 [6]: 15 nM
Molecule: TPP-14250 (R&D Systems, #MAB218) (antibody)

binding result (murine IL-11): no binding
B1: TPP-26333 (antibody, IgG1, V domains shown)
VH: EVQLLESGGGLVQPGGSLRLSCAASGFTFSSYGFHWVRQAPGKGLEWVSVISYDGSYKYYADSVKGRFTISRDNSKNTLYLQMNSLRAEDTAVYYCAAGVPDYWGQGTLVTVSS
VL: QSVLTQPPSASGTPGQRVTISCTGSSSNIGAGYDVHWYQQLPGTAPKLLIYSNNERPSGVPDRFSGSKSGTSASLAISGLRSEDEADYYCAAWDDSLNGPVFGGGTKLTVL

Efficacy (%) [9]: 25%
Efficacy (%) (RGA) [10]: 47.7%
Efficacy (%) (RGA) (human IL-11 (human) [11]): 47.8%
Efficacy (%) (human IL-11 (human) [12]): 0%
B2: TPP-18087 (antibody, mouse IgG1, V domains shown)
VH: EVQLLESGGGLVQPGGSLRLSCAASGFTFSHYDMNWLRQAPGKGLEWVGVISYDGSNKFYADFVKGRFTISRDNSKNTLYLQMNSLRAEDTAVYYCARTPGSHFDYWGQGTLVTVSS
VL: QSVLTQPPSASGTPGQRVTISCSGSSSNIGNNAVNWYQQLPGTAPKLLIYYDDLLPSGVPDRFSGSKSGTSASLAISGLRSEDEADYYCSAWDDSLNGVVFGGGTKLTVLG
notes: mIgG1, Lambda
